In the FLAb antibody collection (doi:10.7554/elife.23156):

B1: scFv; the commonest letter at each place (parent)
chain 1: EVKLDETGGGLVQPGRPMKLSCVASGFTFSDYWMNWVRQSPEKGLEWVAQIRNKPYNYETYYSDSVKGRFTISRDDSKSSVYLQMNNLRVEDMGIYYCTGSYYGMDYWGQGTSVTVS
chain 2: DVVMTQTPLSLPVSLGDQASISCRSSQSLVHSNGNTYLRWYLQKPGQSPKVLIYKVSNRFSGVPDRFSGSGSGTDFTLKISRVEAEDLGVYFCSQSTHVPWTFGGGTKLEIK

Key:
[1] = variants of: B1; experiment: Kd (Tite-Seq); conditions: with fluorescein; format: scFv 4-4-20, heavy + light
[2] = variants of: B1; experiment: yeast surface expression (ratio to wild type); higher = more expressed; conditions: format: scFv 4-4-20, heavy + light

Kd [1] [µM]	Variant	yeast surface expression [2]
≥ 10	chain 1 EVKLDETGGGLVQPGRPMKLSCVASGFTFSDYWMNWVRQSPEKGLEWVAQIRNKPYNYETYYSDSVKGRFTISRDDSKSSVYLQMNNLRVEDMGIYYCTNSYYGYDYWGQGTSVTVS chain 2 DVVMTQTPLSLPVSLGDQASISCRSSQSLVHSNGNTYLRWYLQKPGQSPKVLIYKVSNRFSGVPDRFSGSGSGTDFTLKISRVEAEDLGVYFCSQSTHVPWTFGGGTKLEIK [chain 1 G100N M105Y]	0.462
≥ 10	chain 1 EVKLDETGGGLVQPGRPMKLSCVASGFTFSDYWMNHFRQSPEKGLEWVAQIRNKPYNYETYYSDSVKGRFTISRDDSKSSVYLQMNNLRVEDMGIYYCTGSYYGMDYWGQGTSVTVS chain 2 DVVMTQTPLSLPVSLGDQASISCRSSQSLVHSNGNTYLRWYLQKPGQSPKVLIYKVSNRFSGVPDRFSGSGSGTDFTLKISRVEAEDLGVYFCSQSTHVPWTFGGGTKLEIK [chain 1 W36H V37F]	0.307
≥ 10	chain 1 EVKLDETGGGLVQPGRPMKLSCVASGFTFDDYWMQWVRQSPEKGLEWVAQIRNKPYNYETYYSDSVKGRFTISRDDSKSSVYLQMNNLRVEDMGIYYCTGSYYGMDYWGQGTSVTVS chain 2 DVVMTQTPLSLPVSLGDQASISCRSSQSLVHSNGNTYLRWYLQKPGQSPKVLIYKVSNRFSGVPDRFSGSGSGTDFTLKISRVEAEDLGVYFCSQSTHVPWTFGGGTKLEIK [chain 1 S30D N35Q]	0.883
≥ 10	chain 1 EVKLDETGGGLVQPGRPMKLSCVASGFTFSDYWMNWVRQSPEKGLEWVAQIRNKPYNYETYYSDSVKGRFTISRDDSKSSVYLQMNNLRVEDMGIYYCTGLYRGMDYWGQGTSVTVS chain 2 DVVMTQTPLSLPVSLGDQASISCRSSQSLVHSNGNTYLRWYLQKPGQSPKVLIYKVSNRFSGVPDRFSGSGSGTDFTLKISRVEAEDLGVYFCSQSTHVPWTFGGGTKLEIK [chain 1 S101L Y103R]	0.702
≥ 10	chain 1 EVKLDETGGGLVQPGRPMKLSCVASGFQFSDYVMNWVRQSPEKGLEWVAQIRNKPYNYETYYSDSVKGRFTISRDDSKSSVYLQMNNLRVEDMGIYYCTGSYYGMDYWGQGTSVTVS chain 2 DVVMTQTPLSLPVSLGDQASISCRSSQSLVHSNGNTYLRWYLQKPGQSPKVLIYKVSNRFSGVPDRFSGSGSGTDFTLKISRVEAEDLGVYFCSQSTHVPWTFGGGTKLEIK [chain 1 T28Q W33V]	1.34
0.00175	chain 1 EVKLDETGGGLVQPGRPMKLSCVASGFTFSDYWMNWVRQSPEKGLEWVAQIRNKPYNYETYYSDSVKGRFTISRDDSKSSVYLQMNNLRVEDMGIYYCTGAYYGMDSWGQGTSVTVS chain 2 DVVMTQTPLSLPVSLGDQASISCRSSQSLVHSNGNTYLRWYLQKPGQSPKVLIYKVSNRFSGVPDRFSGSGSGTDFTLKISRVEAEDLGVYFCSQSTHVPWTFGGGTKLEIK [chain 1 S101A Y107S]	0.854
